Measured values reported in paper doi:10.1101/2020.10.01.322081.
“And” between values parts separate entries of the source, which are not always exact repeats. Equal entries are not always repeated. Where two headings read alike, the source gives them in different places.

Tests used:
[1] = target: HIV-1 Gag polyprotein in the immature Gag lattice of purified virus particles (HIV-1); assay: cryo-EM structure
[2] = target: HIV-1 Gag polyprotein in the immature Gag lattice of purified virus particles (HIV-1); assay: cryo-EM structure; remark: listed apart in the source

HIV-1 Gag polyprotein in the immature Gag lattice of purified virus particles (natural protein)
stoichiometry N [1]: 3 and 5
stoichiometry N [2]: 2
